Reference: patent US20230390320A1 (RZNOMICS, published 2023)

Legend:
human PD1 (hPD1) = molecular target: T1, human PD1 (hPD1) (human, UniProt Q15116 25-288, limits assumed); experiment: ELISA; lysate of hPD1-expressing cells coated on plate, scFv from stable 293A culture medium
T1 construct: Stood in the ELISA as a lysate of cells expressing hPD1

mouse PD1 (mPD1) = molecular target: T2, mouse PD1 (mPD1) (mouse, UniProt Q02242 25-288, limits assumed); experiment: ELISA; lysate of mPD1-expressing cells coated on plate, scFv from stable 293A culture medium
T2 construct: Stood in the ELISA as a lysate of cells expressing mPD1
T2 sequence (looked up): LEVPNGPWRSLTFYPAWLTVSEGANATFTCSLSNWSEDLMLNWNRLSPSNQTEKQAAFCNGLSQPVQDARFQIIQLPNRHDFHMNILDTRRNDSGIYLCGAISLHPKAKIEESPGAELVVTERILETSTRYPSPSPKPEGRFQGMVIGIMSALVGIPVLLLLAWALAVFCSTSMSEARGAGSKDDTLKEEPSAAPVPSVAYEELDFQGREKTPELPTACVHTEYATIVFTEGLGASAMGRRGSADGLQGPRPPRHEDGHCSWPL

T1 sequence (Q15116 25-288 limits assumed): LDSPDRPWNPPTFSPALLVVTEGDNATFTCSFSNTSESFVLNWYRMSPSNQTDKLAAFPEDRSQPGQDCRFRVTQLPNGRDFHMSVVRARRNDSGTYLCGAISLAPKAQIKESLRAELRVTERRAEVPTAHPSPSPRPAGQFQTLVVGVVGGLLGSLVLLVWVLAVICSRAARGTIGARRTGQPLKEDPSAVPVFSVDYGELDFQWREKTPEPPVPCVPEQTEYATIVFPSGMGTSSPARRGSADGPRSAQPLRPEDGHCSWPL

B1: scFvPD1(I) (scFv, not shown: small tags and cut ends)
scFv: QVQLVQSGAEVKKPGASVKVSCKASGYTFTAQYMHWVRQAPGQGLEWMGIINPSGGETGYAQKFQGRVTMTRDTSTSTVYMELSSLRSEDTAVYYCAKEGVADGYGLVDVWGQGTMVTVSSGGGGSGGGGSGGGGSGGGGSEIVLTQSPATLSLSPGERATLSCRASQSVSSYLAWYQQKPGQAPRLLIYDASKRATGIPARFSGSGSGTDFTLTISSLEPEDFAVYYCDQRNNWPLTFGGGTKVEIK
notes: also called single chain variable fragment PD1; PD1scFv
Human PD1 (hPD1)
  binding result: binds
Mouse PD1 (mPD1)
  binding result: binds
